We go through five molecules from US20260098102A1 (NATIONAL UNIVERSITY CORPORATION KOBE UNIVERSITY, published 2026).

Residue numbers refer to the chain shown, from its start.

What is called EC50 (read off the curve) is the concentration needed to bring the measured effect to its halfway point.

The labels stand for the following.
T1: monkey SIRPA protein (cynomolgus monkey, UniProt P78324 31-504 (human entry))
T1 construct: Expressed on 293α cells from pcDNA3.2 V5-DEST or pFLAG V5-DEST vectors; also called cynomolgus monkey SIRPA; cSIRPA
T1 chain: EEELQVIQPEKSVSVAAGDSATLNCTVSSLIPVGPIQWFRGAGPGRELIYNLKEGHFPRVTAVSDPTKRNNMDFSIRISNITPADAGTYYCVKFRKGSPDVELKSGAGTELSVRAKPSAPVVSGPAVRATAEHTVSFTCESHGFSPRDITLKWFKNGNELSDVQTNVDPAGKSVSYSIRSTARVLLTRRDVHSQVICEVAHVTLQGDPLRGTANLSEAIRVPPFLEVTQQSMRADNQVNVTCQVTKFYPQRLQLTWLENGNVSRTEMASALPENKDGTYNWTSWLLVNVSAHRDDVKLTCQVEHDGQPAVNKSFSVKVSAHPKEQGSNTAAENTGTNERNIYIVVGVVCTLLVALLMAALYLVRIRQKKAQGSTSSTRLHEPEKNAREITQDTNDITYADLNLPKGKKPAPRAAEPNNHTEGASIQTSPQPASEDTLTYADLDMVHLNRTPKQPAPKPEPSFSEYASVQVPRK

T2: mouse SIRPA_129 (mouse (129), UniProt P97797 32-513)
T2 construct: FLAG-tagged (pFLAG V5-DEST), on 293α cells; also called 129sv
T2 chain: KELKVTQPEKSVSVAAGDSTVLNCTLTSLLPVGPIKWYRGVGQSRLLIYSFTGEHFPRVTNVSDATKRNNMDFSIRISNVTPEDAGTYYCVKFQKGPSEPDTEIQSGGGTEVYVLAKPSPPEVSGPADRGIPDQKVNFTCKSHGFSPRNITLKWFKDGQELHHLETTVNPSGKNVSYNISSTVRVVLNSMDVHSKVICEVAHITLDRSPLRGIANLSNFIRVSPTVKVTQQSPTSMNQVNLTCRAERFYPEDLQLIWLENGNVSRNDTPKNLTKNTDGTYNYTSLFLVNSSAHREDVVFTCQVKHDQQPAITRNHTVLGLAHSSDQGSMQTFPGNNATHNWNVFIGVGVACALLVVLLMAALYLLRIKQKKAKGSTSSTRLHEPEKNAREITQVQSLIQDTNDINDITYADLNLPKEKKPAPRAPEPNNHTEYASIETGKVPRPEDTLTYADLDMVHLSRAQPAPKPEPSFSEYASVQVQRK

B1: humanized anti-SIRPA antibody hD13_H1L3 (antibody, human IgG4 S228P, kappa, F234A L235A, V domains shown)
VH: QVQLVESGGGVVQPGRSLRLSCAASGFTFSDYGMIWVRQAPGKGLEWVASISSSSSYIYYADSVKGRFTISRDNSKNRLYLQMNSLRAEDTAVYYCARRYYGFNYPFDYWGQGTMVTVSS
VL: DTQLTQSPSSLSASVGQRVTITCGASKSVRTYMHWYQQKPGKQPKLLIYSASNLEAGVPSRFSGSGSGTDFTLTISSLQPEDFATYYCQQSNEPPYTFGQGTKLEIKR
notes: hH1 heavy chain (IgG4proFALA) and hL3 kappa light chain; also called hD13_HIL3; HIL3 antibody
B2: humanized anti-SIRPA antibody hD13_H2L3 (antibody, human IgG4 S228P, kappa, F234A L235A, V domains shown)
VH: B1 VH with Q1E, R78T
VL: B1 VL
notes: hH2 heavy chain (IgG4proFALA) and hL3 kappa light chain; also called H2L3 antibody
B3: humanized anti-SIRPA antibody hD13_H2L2 (antibody, human IgG4 S228P, kappa, F234A L235A, V domains shown)
VH: B1 VH with Q1E, R78T
VL: B1 VL with D1A, T2I, Q43A
notes: hH2 heavy chain (IgG4proFALA) and hL2 kappa light chain; also called H2L2 antibody
B4: humanized anti-SIRPA antibody hD13_H1L4 (antibody, human IgG4 S228P, kappa, F234A L235A, V domains shown)
VH: B1 VH
VL: DTVLTQSPDSLAVSLGQRATINCGASKSVRTYMHWYQQKPGQQPKLLIYSASNLEAGVPSRFSGSGSGTDFTLTISSLQAEDVAVYYCQQSNEPPYTFGQGTKVEIKR
notes: hH1 heavy chain (IgG4proFALA) and hL4 kappa light chain; also called hD13_HIL4; hD13_HIL4h
B5: human chimeric anti-SIRPA antibody cD13 (antibody, human IgG4 S228P, kappa, F234A L235A, V domains shown)
VH: EVQLVESGGGLVQPGRSLKLSCLASGFTFSDYGMIWVRQAPGKGLEWVASISSSSSYIYYADTVKGRFTISRENAKNTLFLHMTSLRSEDTALYYCARRYYGFNYPFDYWGQGVMVTVSS
VL: DTVLTQSPALAVSLGQRVTISCGASKSVRTYMHWYQQKSGQQPKLLIYSASNLEAGVPSRFSGSGSGTDFTLTIDPVEADDIANYYCQQSNEPPYTFGAGTKLELKR
notes: Human IgG4proFALA heavy chain, human kappa light chain; also called cD13 (IgG4pf); human chimeric antibody D13

The target of the first assay is T3, human SIRPA_V1 protein (human, UniProt P78324 31-504).
T3 construct: Expressed on 293α cells from pcDNA3.2 V5-DEST or pFLAG V5-DEST (FLAG-tagged) vectors; also called human SIRPA Variant 1; hSIRPA V1
T3 sequence (P78324 31-504 limits assumed): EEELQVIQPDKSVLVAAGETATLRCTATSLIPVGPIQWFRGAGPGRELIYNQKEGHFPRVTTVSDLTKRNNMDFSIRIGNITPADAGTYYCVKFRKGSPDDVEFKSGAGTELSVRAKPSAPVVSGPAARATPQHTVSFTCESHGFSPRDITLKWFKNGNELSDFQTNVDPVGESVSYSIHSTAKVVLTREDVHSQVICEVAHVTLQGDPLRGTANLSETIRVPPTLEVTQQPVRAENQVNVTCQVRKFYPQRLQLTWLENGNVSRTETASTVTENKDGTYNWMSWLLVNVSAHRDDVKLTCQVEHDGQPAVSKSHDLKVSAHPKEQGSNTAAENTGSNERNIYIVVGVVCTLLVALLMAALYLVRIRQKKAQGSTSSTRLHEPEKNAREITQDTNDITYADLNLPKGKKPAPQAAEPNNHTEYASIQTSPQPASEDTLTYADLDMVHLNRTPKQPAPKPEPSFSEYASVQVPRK
Nature of the assay: cell-based ELISA on 293α cells expressing FLAG-tagged SIRPA_V1; Abs 490 normalized to FLAG tag [i]. Here is the method: (§1) The 293a cells, described in Example 1)-6, were prepared at 5× 10⁵ cells/mL in a 10% FBS-containing DMEM medium. pFLAG V5-DEST-SIRPA_V1-V10, pFLAG V5-DEST-monkey SIRPA, pFLAG V5-DEST-mouse SIRPA, or pFLAG V5-DEST was introduced into the cells using Lipofectamine LTX (Invitrogen), and 100 μL each was aliquoted to a 96-well plate (Corning Incorporated) and cultured overnight in a 10% FBS-containing DMEM medium at 37° C. under a 5% CO₂ condition. The obtained introduced cells were used for cell-based ELISA in a state that they adhered. After the culture supernatant was removed, 50 μL per well of hD13_HIL3, hD13_HIL4h, hD13_H2L2, hD13_H2L3, or cD13 prepared in Examples 6 and 7 or a control antibody was added to each of various SIRPA genes-introduced cells at a final concentration of 0 to 10,000 ng/ml, and the mixture was allowed to stand at 4° C. for one hour. Thereafter, binding to human SIRPA was evaluated in the same manner as in Example 5-1.
For B1, the half-maximal effective concentration (EC50 (read off the curve)) is ~0.04 µg/mL.

In the case of B2, the half-maximal effective concentration (EC50 (read off the curve)) is ~0.05 µg/mL.

On to B3, for which the “EC50 (read off the curve)” value is ~0.04 µg/mL.

Consider B4, for which the “EC50 (read off the curve)” value is ~0.04 µg/mL.

For B5, the “EC50 (read off the curve)” value is ~0.05 µg/mL.

Another assay addresses T4, human SIRPA_V9 (human, UniProt P78324 31-504).
T4 construct: FLAG-tagged (pFLAG V5-DEST), on 293α cells; also called human SIRPA Variant 9
Nature of the assay: cell-based ELISA on 293α cells expressing FLAG-tagged SIRPA_V9; Abs 490 normalized to FLAG tag [i]. Here is the method:
as §1
As to B1, the “EC50 (read off the curve)” value is ~0.04 µg/mL.

In the case of B2, the 50% effective concentration (EC50 (read off the curve)) was ~0.04 µg/mL.

B3: the “EC50 (read off the curve)” value was ~0.04 µg/mL.

For B4, the concentration for a half-maximal effect (EC50 (read off the curve)) was ~0.04 µg/mL.

Take B5: the “EC50 (read off the curve)” value was ~0.04 µg/mL.

A further assay has as its target T5, human SIRPA_V2 protein (human, UniProt P78324 31-504).
T5 construct: Expressed on 293α cells from pcDNA3.2 V5-DEST or pFLAG V5-DEST (FLAG-tagged) vectors; also called human SIRPA Variant 2; ECD variant (full-length, amino acids 1 to 504)
Nature of the assay: cell-based ELISA on 293α cells expressing FLAG-tagged SIRPA_V2; Abs 490 normalized to FLAG tag [ii]. Here is the method:
as §1
A general note: ELISA stands for enzyme-linked immunosorbent assay.
B1: the “EC50 (read off the curve)” value is ~0.03 µg/mL.

Regarding B2, the “EC50 (read off the curve)” value was ~0.03 µg/mL.

In the case of B3, the half-maximal effective concentration (EC50 (read off the curve)) is ~0.03 µg/mL.

As for B4, the “EC50 (read off the curve)” value is ~0.03 µg/mL.

B5: the “EC50 (read off the curve)” value was ~0.03 µg/mL.

Another assay deals with T6, human SIRPA_V6 (human, UniProt P78324 31-504).
T6 construct: FLAG-tagged (pFLAG V5-DEST), on 293α cells; also called human SIRPA Variant 6
T6 sequence (P78324 31-504 S105P limits assumed): as the sequence (P78324 31-504 limits assumed) above, with S75P counted along it
Briefly: cell-based ELISA on 293α cells expressing FLAG-tagged SIRPA_V6; Abs 490 normalized to FLAG tag [ii]. As to the method: as §1
B1: the half-maximal effective concentration (EC50 (read off the curve)) is ~0.04 µg/mL.

Turning to B2, the “EC50 (read off the curve)” value is ~0.04 µg/mL.

In the case of B3, the concentration for a half-maximal effect (EC50 (read off the curve)) is ~0.04 µg/mL.

For B4, the concentration for a half-maximal effect (EC50 (read off the curve)) was ~0.04 µg/mL.

B5: the half-maximal effective concentration (EC50 (read off the curve)) was ~0.04 µg/mL.

The target of a further assay is T1, monkey SIRPA protein. Briefly: blocking cell-based ELISA: peroxidase-labeled CD47-Fc (1 µg/mL) on 293α cells expressing monkey SIRPA; y axis = CD47-Fc signal relative to no antibody (100). As to the method:
After the culture supernatant of human SIRPA or monkey SIRPA expression vector-introduced 293α cells prepared in Example 8)-1 was removed, 50 μL per well of hD13_HIL3, hD13_HIL4h, hD13_H2L2, or hD13_H2L3 diluted with 5% FBS-containing PBS to a final concentration of 0 to 10,000 ng/ml was added to each of pcDNA3.2 V5-DEST-SIRPA_V1, pcDNA3.2 V5-DEST-SIRPA_V2, pcDNA3.2 V5-DEST-monkey SIRPA, and pcDNA3.2 V5-DEST-introduced 293α cells, immediately followed by addition of peroxidase-labeled CD47-Fc prepared with 5% FBS-containing PBS at 1 μg/mL, and the mixture was allowed to stand at 4° C. for one hour. Thereafter, the SIRPA-CD47 binding inhibitory activity was evaluated in the same manner as in 1)-6-3.
B1: the “IC50 (read off the curve)” value was ~0.6 µg/mL.

As for B2, the “IC50 (read off the curve)” value was ~0.8 µg/mL.

Consider B3, for which the “IC50 (read off the curve)” value was ~0.9 µg/mL.

Regarding B4, the “IC50 (read off the curve)” value was ~1 µg/mL.

For B5, the “IC50 (read off the curve)” value was ~0.9 µg/mL.

The target of another assay is T7, human SIRPA_V5 (human, UniProt P78324 31-504).
T7 construct: FLAG-tagged (pFLAG V5-DEST), on 293α cells; also called human SIRPA Variant 5
T7 sequence (P78324 other isoform, or with tags, fused parts or gaps limits assumed): as the sequence (P78324 31-504 limits assumed) above, with S12F counted along it
Briefly: cell-based ELISA on 293α cells expressing FLAG-tagged SIRPA_V5; Abs 490 normalized to FLAG tag [i]. As to the method:
as §1
For B1, the “EC50 (read off the curve)” value was ~0.04 µg/mL.

For B2, the 50% effective concentration (EC50 (read off the curve)) was ~0.04 µg/mL.

With B3, the “EC50 (read off the curve)” value was ~0.04 µg/mL.

On to B4, for which the concentration giving a half-maximal response (EC50 (read off the curve)) was ~0.04 µg/mL.

For the molecule B5, the 50% effective concentration (EC50 (read off the curve)) was ~0.04 µg/mL.

A further assay concerns the target T2, mouse SIRPA_129. Briefly: cell-based ELISA on 293α cells expressing FLAG-tagged mouse SIRPA (129sv); Abs 490 normalized to FLAG tag [iii]. Here is the method: as §1
With B1, the binding result was “no binding (tested: 10000 ng/mL)”.

On to B2, for which the binding result is reported as “no binding (tested: 10000 ng/mL)”.

In the case of B3, the binding result was “no binding (tested: 10000 ng/mL)”.

As for B4, the binding result is “no binding (tested: 10000 ng/mL)”.

B5: the binding result is recorded as “no binding (tested: 10000 ng/mL)”.
